Target: T1, FRα重组蛋白 (叶酸受体α, folate receptor α recombinant protein) (UniProt P15328 25-233, limits assumed)
T1 construct: Recombinant protein used for panning and ELISA (coated) and, after biotinylation (biotin:protein 20:1), on streptavidin sensors for BLI
Test: BLI (ForteBio Octet), biotinylated FRα on streptavidin sensor, scFv in solution

T1 sequence (P15328 25-233 limits assumed): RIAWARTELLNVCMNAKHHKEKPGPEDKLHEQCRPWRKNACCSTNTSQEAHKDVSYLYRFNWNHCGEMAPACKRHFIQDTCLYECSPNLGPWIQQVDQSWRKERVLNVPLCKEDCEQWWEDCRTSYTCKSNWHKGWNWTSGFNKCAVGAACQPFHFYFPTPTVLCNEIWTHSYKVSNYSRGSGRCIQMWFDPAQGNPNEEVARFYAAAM

B1: FR ScFv (靶向叶酸受体α的单链抗体) (scFv)
scFv: QAQLLESGGGLVQPGGSLRLSCAASGFTFSSYAMSWVRQAPGKGLEWVSAISGSGGSTYYADSVEGRFTISRDNSKNTLYLQMNSLRAEDTAVYYCARRAVGRGWRFWGQGTMVTVSSGGGGSGGGGSGGGGSDIVLTQSPSASGTPGQRVTISCSGSSSNIGSNYVYWYQQLPGTAPKLLIYRNNQRPSGVSDRFSGSKSGTSASLAISGLRSEDEADYYCAAWDDSLSARVFGGGTKVDIKR
notes: Soluble scFv expressed in E. coli BL21 from pET22b (BamH I/Hind III), purified on a nickel column; about 28.32 kDa; Vector-derived residues at the N-terminus (pelB leader, cloning site) are not described; also called 叶酸受体α单链抗体; FRα单链抗体; not shown: C-terminal His tag from the pET22b vector (fused downstream of the gene)
  Kd: 41.3 nM
  koff: 0.00127 s⁻¹
  kon: 30900 M⁻¹ s⁻¹
